Assay results from patent US20190002846A1, “POLYPEPTIDES HAVING DEMETHYLATING ACTIVITY” (Genencor International B.V., priority 2015, published 2019).

Legend:
[1] = Demethylation of syringic acid (GC methanol, UHPLC/MSMS); format: biochemical
Protocol: Syringic acid (12 mM, 2.38 g/L) was incubated with PPO7 from Example 2 (1.2 μM, 0.048 g/L, 2% loading (w/w)) in 50 mM BisTris buffer pH 6.5 with 10 μM CuSO4. Blank prepared without the addition of enzyme was included. Incubations were performed in GC headspace vials with a total of 1 mL reaction volume in duplicate at room temperature for approximately 90 h. The reaction was stopped by adding 28 μL 1M HCl to lower the pH to ˜3. One of the replicates was analyzed by GC for the methanol formation. A calibration range of 0.23 to 11.6 mM methanol in buffer with HCl was included. The second replicate was analyzed using UHPLC and the formation 3,4-dihydroxy-5-methoxybenzoic acid was confirmed using MSMS (see FIG. 5).

[2] = Conversion of syringic acid by purified PPO, difference absorbance spectra after 24 h; format: biochemical; conditions: 12 mM syringic acid, purified enzyme 0.048 g/L, pH 6.5, 10 μM CuSO4, room temperature
Protocol: Syringic acid (12 mM, 2.38 g/L) was incubated with PPO7 and PPO2 from Example 5 (0.048 g/L, 2% loading (w/w)) in 50 mM BisTris buffer pH 6.5 with 10 μM CuSO4. Blank prepared without the addition of enzyme was included. Incubations were performed in HPLC vials with a total of 750 μL reaction volume at room temperature for 24 h. The reaction was stopped by adding 21 μL 1M HCl to lower the pH to ˜3. Samples were filtrated and absorbance spectra were measured (230-1000 nm, 2 nm interval). […] It is to be noted that any change in absorbance in time indicates syringic acid conversion.

[3] = target: T1, RAC incubated with LPMO9B (Thermothelomyces thermophilus, UniProt G2QCJ3); test: RAC hydrolysis assay with LPMO9B and PPO7 or AbTyr in the presence of phenolic reducing agents; format: biochemical, Myceliophthora thermophila; conditions: LPMO9B alone = 100%, or with added enzyme, pH 5.0, 50° C., 24 h
T1 construct: made in house; host or cells: Myceliophthora thermophila C1 strain W1L#100.1Δpyr5ΔAlp1
T1 sequence (G2QCJ3 19-323): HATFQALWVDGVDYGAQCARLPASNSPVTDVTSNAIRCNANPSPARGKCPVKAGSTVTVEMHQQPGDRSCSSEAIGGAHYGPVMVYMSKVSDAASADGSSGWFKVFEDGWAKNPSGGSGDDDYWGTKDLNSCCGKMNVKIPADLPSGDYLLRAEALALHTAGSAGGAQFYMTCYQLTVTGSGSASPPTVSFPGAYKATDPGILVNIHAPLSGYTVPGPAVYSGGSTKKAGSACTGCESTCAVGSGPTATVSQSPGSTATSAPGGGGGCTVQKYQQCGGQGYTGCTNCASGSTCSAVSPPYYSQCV
Protocol: Phenolic reducing agents were obtained from Sigma-Aldrich (St. Louis, Mo., USA). RAC was prepared as described above and dissolved in 50 mM phospate buffer (pH 5.0) to a final concentration of 1.5 mg/ml. Copper chloride was added to a final concentration of 2.5 μM and a phenolic reducing agent to a final concentration of 2 mM. LPMO9B (5 μg/ml) with or without PPO7 (5 μg/ml) or AbTyr (7.5 U/ml) were added and incubated for 24 h at 50° C. in a head-over-tail rotator in portions of 1 mL total volume (Stuart® rotator, Bibby Scientific LTD, Stone, UK) at 20 rpm. Products were analysed by HPAEC and MALDI-TOF MS as described previously. (Frommhagen M, Sforza S, Westphal A H, Visser J, Hinz S W, Koetsier M J et al. Discovery of the combined oxidative cleavage of plant xylan and cellulose by a new fungal polysaccharide monooxygenase. Biotechnology for Biofuels. 2015; 8:101. doi:10.1186/s13068-015-0284-1). The Activity denoted as Activity * represents total release of non-oxidized and C1-oxidized gluco-oligosaccharides from RAC incubated with LPMO9B in the presence of a phenolic reducing agent and with addition of either AbTyr or PPO7. […] Standard deviations were less than 2%.

[4] = Methanol formation by GC, lignin-derived compound; format: biochemical; conditions: enzyme 0.5 g/L, 25° C., approx. 48 h
Protocol: (§1) Model compounds syringic acid, syringol, 1,3-dimethoxybenzene and 3,5-dimethoxybenzoic acid (12 mM) were incubated with PPO7 from Example 2 (2% loading (w/w)) in 50 mM BisTris buffer pH 6.5 with 10 μM CuSO4. For syringic acid and syringol PPO2 from Example 2 was included as a control. Lignin and lignin-derived compounds (10 g/L) were incubated with PPO7 from Example 2 (0.5 g/L, 5% loading (w/w)). PPO2 from Example 2 was included as a control and incubated using the same conditions. Blanks prepared without the addition of enzyme were included. Incubations were performed in GC headspace vials with a total of 1 mL reaction volume at 25° C. for approximately 48 h while shaking. The reaction was stopped by adding 28 μL 1M HCl to lower the pH to ˜3. Samples were analyzed by GC for methanol formation. A calibration range of 0.23 to 11.5 mM methanol in buffer with HCl was included.

[5] = Methanol formation by GC, model compound; format: biochemical; conditions: for methanol: 2% enzyme loading, approx. 48 h
Protocol: as §1

[6] = 12 mM syringic acid, enzyme 0.048 g/L, pH 6.5, 10 μM CuSO4, room temperature, approx. 90 h, blank 0

B1: PPO7: Myceliophthora thermophila C1 polyphenoloxidase with demethylating activity, mature form SEQ ID NO: 45 (protein, listed as Myceliophthora thermophila)
chain: NPMHKRWKPNAPRNPDFPLDEVDKLEESIMPNVEAWMSKRPAKYSNCTLENAGIRREWSDLSVDERKEYISAVLCLQSKPSKIPEGEVPGALSRFDDFVATHMTMAGQLHSPTNLFAAHRYFIHAYEKALREECGYKGYQPYMNYDRYADDPLNTPLFDGSDSSMSGNGGPYNYSGIPQPFPKPYNLIPPAGGGGCVTEGPFRDMVVSLGPKGGLFHDIPRNPRADGLGSNPRCLRRDVNKYSARGARANYTYSAIMDNPDIDSFYNRYMGMPQLKGDPYPWGLHSSGHYLIGGDPGGDFYCSPGDPLFYFHHGMLDRVWWIWQMQDPENRVQAVPGTNTMPMPPLMAANLESEAAATTTHKRAVNVSDLVVDLGWTAPPVKLVDLNEQLGGLGGELCYIYV
3,4-dihydroxy-5-methoxybenzoic acid concentration (UHPLC) [1, 6]: 1.61 mM
methanol concentration (GC) [1, 6]: 4.84 mM
syringic acid concentration (UHPLC) ([1]; 12 mM syringic acid, enzyme 0.048 g/L, pH 6.5, 10 μM CuSO4, room temperature, approx. 90 h, blank 10.86): 3.02 mM
Demethylation of syringic acid (in words) ([1]; formation of 3,4-dihydroxy-5-methoxybenzoic acid and methanol): catalyzed the demethylation of syringic acid
Spectral change caused by reaction products [2]: spectral increase between 300 and 500 nm
Syringic acid conversion: negative peak in the difference absorbance spectra between 230 and 300 nm [2]: more significant for PPO7 than for PPO2
Activity: total release of non-oxidized and C1-oxidized gluco-oligosaccharides from RAC ([3]; reducing agent 3,4-dihydroxy-5-methoxybenzoic acid 2 mM): 22%
Activity: total release of non-oxidized and C1-oxidized gluco-oligosaccharides from RAC ([3]; reducing agent 3,4-dihydroxy-5-methoxycinnamic acid 2 mM): 116%
Activity: total release of non-oxidized and C1-oxidized gluco-oligosaccharides from RAC ([3]; reducing agent 3,4-dihydroxybenzoic acid 2 mM): 139%
Activity: total release of non-oxidized and C1-oxidized gluco-oligosaccharides from RAC ([3]; reducing agent 3-hydroxy-4-methoxycinnamic acid 2 mM): 7558%
Activity: total release of non-oxidized and C1-oxidized gluco-oligosaccharides from RAC ([3]; reducing agent 3-methylcatechol 2 mM): 104%
Activity: total release of non-oxidized and C1-oxidized gluco-oligosaccharides from RAC ([3]; reducing agent 4-allyl-2,4-methoxyphenol 2 mM): 108%
Activity: total release of non-oxidized and C1-oxidized gluco-oligosaccharides from RAC ([3]; reducing agent 4-hydroxy-3-methoxyphenylactone 2 mM): 131%
Activity: total release of non-oxidized and C1-oxidized gluco-oligosaccharides from RAC ([3]; reducing agent caffeic acid 2 mM): 122%
Activity: total release of non-oxidized and C1-oxidized gluco-oligosaccharides from RAC ([3]; reducing agent coniferyl aldehyde 2 mM): 562%
Activity: total release of non-oxidized and C1-oxidized gluco-oligosaccharides from RAC ([3]; reducing agent ferulic acid 2 mM): 231%
Activity: total release of non-oxidized and C1-oxidized gluco-oligosaccharides from RAC ([3]; reducing agent gallic acid 2 mM): 124%
Activity: total release of non-oxidized and C1-oxidized gluco-oligosaccharides from RAC ([3]; reducing agent guaiacol 2 mM): 5143%
Activity: total release of non-oxidized and C1-oxidized gluco-oligosaccharides from RAC ([3]; reducing agent hesperidin 2 mM): 771%
Activity: total release of non-oxidized and C1-oxidized gluco-oligosaccharides from RAC ([3]; reducing agent homovanillic acid 2 mM): 580%
Activity: total release of non-oxidized and C1-oxidized gluco-oligosaccharides from RAC ([3]; reducing agent vanillic acid 2 mM): 495%
methanol ([4]; Carboxymodified lignin (corn) 10 g/L, blank 0): 0.35 mM
methanol ([4]; Carboxymodified lignin (wheat)1 10 g/L, blank 0): 0.31 mM
methanol ([4]; Carboxymodified lignin (wheat)2 10 g/L, blank 0): 0.33 mM
methanol ([4]; Fractionated BioLignin 10 g/L, blank 0.28): 0.46 mM
methanol ([4]; Lowest MW from lignin fractionation 10 g/L, blank 0.04): 1.43 mM
methanol ([4]; Purified wheat straw BioLignin 10 g/L, blank 0.05): 0.21 mM
Methanol release (in words) ([5]; 1,3-dimethoxybenzene): no methanol release
methanol ([5]; 1,3-dimethoxybenzene 12 mM, 25° C., blank 0): 0 mM
Methanol release (in words) ([5]; 3,5-dimethoxybenzoic acid): no methanol release
methanol ([5]; 3,5-dimethoxybenzoic acid 12 mM, 25° C., blank 0): 0 mM
Demethylation of syringic acid (in words) ([5]; Example 9 conditions): catalyzed the demethylation
Demethylation of syringol (in words) ([5]; Example 9 conditions): catalyzed the demethylation
methanol ([5]; Syringic acid 12 mM, pH 6.5, 10 μM CuSO4, 25° C., blank 0): 4.58 mM
methanol ([5]; Syringol 12 mM, pH 6.5, 10 μM CuSO4, 25° C., blank 0.06): 5.73 mM
